B1: library; numbered along this chain (parent)
chain: MATDAALRRLLRLHRTEIAVAVDSAFPLLHALADHDVVPEDKFQETLHLKEKEGCPQAFHALLSWLLTQDSTAILDFWRVLFKDYNLERYGRLQPILDSFPKDVDLSQPRKGRKPPAVPKALVPPPRLPTKRKASEEARAAAPAALTPRGTASPGSQLKAKPPKKPESSAEQQRLPLGNGIQTMSASVQRAVAMSSGDVPGARGAVEGILIQQVFESGGSKKCIQVGGEFYTPSKFEDSGSGKNKARSSSGPKPLVRAKGAQGAAPGGGEARLGQQGSVPAPLALPSDPQLHQKNEDECAVCRDGGELICCDGCPRAFHLACLSPPLREIPSGTWRCSSCLQATVQEVQPRAEEPRPQEPPVETPLPPGLRSAGEEVRGPPGEPLAGMDTTLVYKHLPAPPSAAPLPGLDSSALHPLLCVGPEGQQNLAPGARCGVCGDGTDVLRCTHCAAAFHWRCHFPAGTSRPGTGLRCRSCSGDVTPAPVEGVLAPSPARLAPGPAKDDTASHEPALHRDDLESLLSEHTFDGILQWAIQSMARPAAPFPS

Variants of: B1
Assay: AIRE transcriptional activation functional score (insulin promoter-GFP; nonsense median 0, synonymous median 1) (normalised score); higher = higher AIRE activity (more reporter activation)
Details: with insulin promoter-GFP reporter in HEK293
In short: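 Three regions of AIRE were covered by codon-optimized NNN-codon libraries, which Bxb1 recombinase integrated into Flp-In T-REx HEK293 landing-pad cells that carry an insulin core promoter-GFP reporter. Integrants (mCherry+, BFP−) were sorted at day 7 and expanded 7 days, and then the top 10% GFP population and the unselected integrant population were tile-sequenced. The functional score is the enrichment of each variant in select versus non-select cells, with wild type subtracted. Variants required 10 counts per million in non-select, and values were rescaled to a nonsense median of 0 and a synonymous median of 1, then averaged over biological replicates.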

AIRE transcriptional activation functional score of substitutions, site by site:
G379: E 1 | T 0.911 | P 0.992 | I 1.26 | K 1.19 | N 1.23 | D 1.24 | W 1.23 | V 0.691 | C 0.863 | A 0.877 | Y 1.47 | R 0.719 | L 1.41 | S 1.37
P380: H 0.534 | I 1.14 | A 0.626 | G 0.801 | L 0.882 | Q 1.16 | T 1.45 | E 0.934 | K 0.944 | N 1.52 | Y 1.42 | M 1.34 | D 0.476 | V 0.912 | C 0.499 | F 0.369 | S 0.998 | R 0.936 | W 1.39
T390: L 1.23 | K 1.1 | I 0.876 | D 0.833 | A 0.741 | C 0.472 | W 1.51 | R 1.02 | P 0.842 | F 1.29 | G 1.17 | E -0.73 | V 1.25 | Y 1.62 | Q 0.868 | S 0.817 | N 1.09
K395: C 0.49 | N 0.081 | A 0.786 | S 0.558 | H 0.628 | M 2.5 | I 0.422 | F 0.828 | R -0.166 | W 0.234 | D 0.353 | T 0.901 | E 0.701 | L 1.38 | Q 1.35 | Y 1.47 | V 1.34
Y394: W 0.755 | R 0.595 | K 0.301 | T 0.126 | M 1.13 | A 0.692 | D 0.711 | Q -0.333 | S 0.848 | N 0.966 | G 0.882 | E 0.49 | H 0.428 | I 0.972 | F 0.973 | C 0.576 | L 1.07 | V 0.926 | P 1.43
P381: S 0.87 | E 1.26 | I 0.705 | F 1.15 | Q 1.35 | H 1.03 | A 0.912 | G 1.11 | L 1.13 | M 1.06 | Y 1.39 | R 1.25 | N 1.07 | C 0.894 | T 0.929 | K 1.04 | W 0.42 | V 1.15 | D 0.696
T391: V 1.16 | S 0.957 | K 0.54 | P 0.882 | Y 1.45 | H 1.17 | F 1.41 | A 1.09 | M 1.02 | D 0.889 | C 0.542 | L 1.06 | I 1.29 | Q 0.725 | G 0.941 | R 1.15 | E 0.539 | W 1.58
V393: S 0.746 | Q -0.242 | G 1.28 | E 0.991 | M 0.98 | R 0.0991 | C 1.11 | N 1.09 | L 1.2 | W 1.67 | Y 0.561 | P 0.254 | A 1.04 | T 1.14 | D 0.48
A386: C 0.57 | V 0.968 | E 1.21 | M 1.53 | P 0.921 | Q 0.654 | T 1.02 | N 0.757 | F 1.74 | K 1.1 | D 0.793 | Y 1.55 | I 0.514 | H 1.44 | G 0.732 | S 0.756 | L 1.36 | R 1.1 | W 1.47
L385: T 0.874 | A 0.341 | E 1.15 | Q 1.24 | G 1 | S 0.77 | K 0.616 | F 0.899 | Y 1.34 | R 0.699 | N 0.689 | H 1.13 | C 1.42 | W 1.56 | P 0.451 | I 0.603 | V 0.955 | D -0.182
L392: K 1.14 | H 0.636 | R 1.06 | S 1.43 | V 1.36 | T 0.53 | W 1.22 | Q 1.18 | M 0.734 | P 0.582 | I 1.7 | G 0.912 | E 0.303 | F 1.15 | N 0.909 | A 0.196
P384: W 1.61 | I 0.998 | T 1.17 | A 0.99 | E 1.39 | S 0.379 | R 1.19 | L 1.14 | V 0.849 | G 1.62 | K 0.962 | M 1.35 | N 0.179 | H 1.05 | Q 1.01
M388: E 0.756 | R 0.983 | P 1.14 | G 0.832 | T 0.897 | I 0.924 | Q 0.232 | V 1.49 | N 0.557 | S 0.824 | C 0.979 | D 0.8 | W 1.46 | Y -0.0355 | K 1.05 | A 0.871 | F 1.15 | H 1.2 | L 1.17
H396: Y 1.44 | E -0.185 | S 0.606 | L 1.69 | K 1.61 | D 0.156 | Q 1.12 | I 1.17 | T 0.549 | G 0.899 | P 1.02 | W 1.28 | C 1.33 | N 1.09 | V 1.25 | A 0.663 | R 1.03 | F 1.15
E383: L 1.22 | T 1.49 | M 0.564 | S 1.01 | F 1.58 | Y 1.27 | W 0.951 | K 0.473 | G 1.09 | V 1.13 | P 0.887 | A 1.32 | I 0.922 | H 0.859 | Q 0.74 | C 1.18 | R 1.05 | D 0.97
R378: T 0.986 | N 1.28 | K 1.17 | C 0.601 | D 0.631 | I 0.795 | M 0.0153 | Y 0.657 | L 0.904 | G 0.98 | F 1.1 | E 0.928 | A 0.851 | Q 0.825 | P 0.932 | V 0.869 | H 0.92 | S 0.975
G387: L 1.35 | A 1.19 | P 0.291 | C 0.799 | T 1.22 | F 1.52 | I 1.59 | R 1.1 | W 1.52 | S 0.84 | K 0.344 | Y 1.72 | V 1.5
L397: C 0.827 | E 0.622 | D 0.808 | A 0.914
D389: A 1.04 | Q -0.15 | Y 0.964 | E 0.728 | H 1.2 | W 0.0908 | N 1.22 | V 0.292 | M -0.143 | S 1.24 | L 0.218 | C 0.869 | K 0.278 | G 0.913 | I -0.197 | R 0.387 | T 1.23 | F 0.472 | P 0.951
G382: R 1.03 | L 0.669 | F 1.11 | K 0.449 | I 0.702 | T 0.841 | D 0.898 | V 1.22 | A 0.906 | N 0.95 | C 0.802 | E 1.19 | W 1.38 | H 1.29 | Y 1.13 | Q 1.24 | S 0.979 | P 0.74

From the supplement of paper PMC12667976
